Ends that are not written are not given here.
B1: ~55 kDa laminin fragment obtained by elastase digestion of EHS mouse laminin (other, UniProt P19137 2690-3083, looked up)
chain: HREHGELPPEPPTLPQPELCAVDTAPGYVAGAHQFGLSQNSHLVLPLNQSDVRKRLQVQLSIRTFASSGLIYYVAHQNQMDYATLQLQEGRLHFMFDLGKGRTKVSHPALLSDGKWHTVKTEYIKRKAFMTVDGQESPSVTVVGNATTLDVERKLYLGGLPSHYRARNIGTITHSIPACIGEIMVNGQQLDKDRPLSASAVDRCYVVAQEGTFFEGSGYAALVKEGYKVRLDLNITLEFRTTSKNGVLLGISSAKVDAIGLEIVDGKVLFHVNNGAGRITATYQPRAARALCDGKWHTLQAHKSKHRIVLTVDGNSVRAESPHTHSTSADTNDPIYVGGYPAHIKQNCLSSRASFRGCVRNLRLSRGSQVQSLDLSRAFDLQGVFPHSCPGPEP
notes: domain: C-terminal globular domains of the laminin A1 chain; also called ~55 kilodalton laminin fragment; ~55 kDa fragment of laminin

What was measured:
[1] = molecular target: T1, Aβ 1-40 (beta-amyloid protein 1-40); assay: solid phase binding immunoassay; ~55 kDa laminin fragment immobilized on microtiter plates, increasing concentrations of Aβ (1-40)
T1 construct: Bought from Bachem; Residues 1-40 are counted on Aβ itself; also called Alzheimer's Aβ

[2] = molecular target: Aβ (beta-amyloid protein, length not stated at the place); assay: cell-based or functional assay
[3] = molecular target: Aβ 1-42 (beta-amyloid protein 1-42), pre-formed fibrils; assay: cell-based or functional assay

Binder	Kd [1] [nM]	inhibition of Aβ fibril formation, Aβ:peptide molar ratio 1:1 [2] [%]	disruption of pre-formed Aβ 1-42 fibrils (Thioflavin T fluorometry), Aβ:peptide molar ratio 1:10 [3] [%]
B1	2		
RKRLQVQLSIRT-NH2 [AG73 peptide (laminin alpha-1 chain globular domain-derived peptide)]		50	81
